In this experiment the target is T1, aryl hydrocarbon receptor nuclear translocator (ARNT) (human, UniProt P27540 1-789, limits assumed).
T1 construct: also called hARNT
The experiment can be described thus: heterodimer formation by deletion mutant; method not named.

T1 sequence (P27540 whole entry): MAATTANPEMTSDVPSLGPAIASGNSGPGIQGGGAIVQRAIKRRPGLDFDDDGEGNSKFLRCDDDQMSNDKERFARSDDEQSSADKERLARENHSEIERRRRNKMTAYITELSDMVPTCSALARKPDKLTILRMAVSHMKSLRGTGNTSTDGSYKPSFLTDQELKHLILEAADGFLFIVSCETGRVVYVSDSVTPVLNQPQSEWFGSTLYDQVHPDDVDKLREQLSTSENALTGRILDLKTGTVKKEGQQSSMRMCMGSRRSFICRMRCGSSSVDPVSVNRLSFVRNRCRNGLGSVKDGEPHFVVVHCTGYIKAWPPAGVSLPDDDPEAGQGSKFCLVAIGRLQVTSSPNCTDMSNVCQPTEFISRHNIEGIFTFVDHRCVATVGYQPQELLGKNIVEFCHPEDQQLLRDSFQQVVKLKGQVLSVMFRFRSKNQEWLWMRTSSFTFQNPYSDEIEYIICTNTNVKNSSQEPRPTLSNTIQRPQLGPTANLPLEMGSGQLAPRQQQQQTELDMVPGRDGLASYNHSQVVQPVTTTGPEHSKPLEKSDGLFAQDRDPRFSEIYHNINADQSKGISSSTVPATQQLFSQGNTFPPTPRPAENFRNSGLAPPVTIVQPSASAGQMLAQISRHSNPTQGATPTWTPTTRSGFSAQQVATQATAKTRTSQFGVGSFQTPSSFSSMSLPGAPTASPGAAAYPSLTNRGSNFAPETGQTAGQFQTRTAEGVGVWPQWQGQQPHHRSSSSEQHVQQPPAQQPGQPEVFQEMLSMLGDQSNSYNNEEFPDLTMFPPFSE

B1: EPAS1 polypeptide lacking amino acids 486-639 of SEQ ID NO: 6 (other)
chain: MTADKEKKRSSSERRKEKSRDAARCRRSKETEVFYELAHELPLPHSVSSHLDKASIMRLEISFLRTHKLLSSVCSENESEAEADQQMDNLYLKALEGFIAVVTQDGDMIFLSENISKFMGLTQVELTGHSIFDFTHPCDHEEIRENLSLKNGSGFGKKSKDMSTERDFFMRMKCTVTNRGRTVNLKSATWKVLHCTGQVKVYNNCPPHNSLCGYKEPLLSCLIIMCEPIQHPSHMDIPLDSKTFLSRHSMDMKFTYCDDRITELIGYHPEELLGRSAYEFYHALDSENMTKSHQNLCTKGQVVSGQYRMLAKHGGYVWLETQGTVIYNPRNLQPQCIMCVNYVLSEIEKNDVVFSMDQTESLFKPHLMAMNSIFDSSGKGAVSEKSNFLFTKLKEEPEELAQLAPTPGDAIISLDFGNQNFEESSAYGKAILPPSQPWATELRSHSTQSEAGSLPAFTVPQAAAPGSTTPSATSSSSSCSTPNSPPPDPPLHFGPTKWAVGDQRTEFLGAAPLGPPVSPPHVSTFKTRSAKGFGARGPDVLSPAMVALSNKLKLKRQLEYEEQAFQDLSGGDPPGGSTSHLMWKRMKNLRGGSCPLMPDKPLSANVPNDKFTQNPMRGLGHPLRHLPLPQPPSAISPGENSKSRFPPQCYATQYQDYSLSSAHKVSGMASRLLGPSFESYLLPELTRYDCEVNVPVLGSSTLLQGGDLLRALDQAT
notes: Internal deletion as worded; The C-terminal end, 870, is derived from '1-690' plus '180 C-terminal amino acids'; also called dominant negative EPAS1 mutant
Consider B1, for which the binding result was “binds”.

The values are drawn from patent US20030032609A1 (Harvard, published 2003).
